Laboratory results: patent US20220213216A1 (SOUND BIOPHARMACEUTICALS, published 2022)

Experiments:
[1] = target: T1, human Her2 with an Fc tag (AcroBiosystem, catalog number HE2-H5253) (human, UniProt P04626 23-652); assay: BLI (Octet QKe), Her2-Fc on Protein A biosensors, 1:1 fit
T1 construct: extracellular domain; Bought protein, loaded on Protein A biosensors; also called Her2 antigen; extracellular region of the Her2 protein; not shown: Fc tag of the bought protein, not described
Method: (§1) Affinity assay: The OctetQKe instrument (Pall Life Sciences) was used to determine the affinity of the anti-Her2 antibody to the extracellular region of the Her2 protein. Briefly, human Her2 with an Fc tag in PBST (AcroBiosystem, catalog number HE2-H5253) was loaded onto the surface of ProteinA Capture Biosensors (ProA). Immobilization level was set at […]. Then a 60-second biosensor baseline step was performed, and the antigen/antibody association was analyzed for 180 seconds on the biosensor to test the antibody/antigen. The test molecules were then applied at a two-fold concentration gradient. The data analysis software version 8.2 (PALL/ForteBio) was used to evaluate the Octet data, and the full-fit 1:1 modal was used to determine the Kd value.
(§2) In order to detect the binding ability of the antibodies to Her2 antigen, biofilm interference technology (BLI) was used to analyze the interaction between the antibodies and Her2 antigen.

[2] = target: T1, human Her2 with an Fc tag …; assay: BLI (OctetQKe); Fc-tagged human Her2 loaded on Protein A biosensors, antibody in two-fold dilutions, 1:1 fit; column head Kdis
Method: as §1

[3] = target: T1, human Her2 with an Fc tag …; assay: BLI (OctetQKe); Fc-tagged human Her2 loaded on Protein A biosensors, antibody in two-fold dilutions, 1:1 fit
Method: as §1

[4] = target: T1, human Her2 with an Fc tag …; assay: BLI (Octet QKe), Her2-Fc on Protein A biosensors, 1:1 fit; single-site bivalent Bi-Bs
Method: as §1, §2

[5] = target: T1, human Her2 with an Fc tag …; assay: BLI (Octet QKe), Her2-Fc on Protein A biosensors, 1:1 fit; Bp-Bs with dual Her2 binding sites
Method: as §1, §2

Binder | Kd [1] [nM] | koff [2] [s⁻¹] | kon [3] [M⁻¹ s⁻¹] | Kd [4] [nM] | Kd [5] [nM]
anti-Her2-VHH2-Fc (Fc fusion, Called a single-site bivalent antibody; 2; not shown: Fc and any linker are not described) QVQLQESGGGSVQAGGSLRLSCRASGFTFSSYAMSWVRQPPGKELEWVSAIWGGGDSQHYADSVKGRFTISRDNAKNTLYLQLNSLKTEDTGMYYCVKDRGPFFSGSKYVLGAADRGQGTQVTVSS | 3.02 | 8.99e-05 | 29800 | – | –
bivalent anti-Her2 bispecific antibody Bi-Bs (anti-CD3 UCHT1 Fab with anti-Her2 VHH1 on both CL and CH1) (bispecific antibody, 3 is VL-CL-VHH1, so the heavy and light labels are probably swapped in this sentence; Expressed in E. coli and purified on Ni Sepharose) chain 1: EIVLTQSPATLSLSPGERATLSCSASSGVNYMHWYQQKPGQAPRRWIYDTSKLASGVPARFSGSGSGTSYSLTISSLEPEDFAVYYCHQRGGSYTFGGGTKLEIKRKLTVAAPSVFIFPPSDEQLKSGTASVVCLLNNFYPREAKVQWKVDNALQSGNSQESVTEQDSKDSTYSLSSTLTLSKADYEKHKVYACEVTHQGLSSPVTKSFNRGECGSQVQLVQSGGGLVQAGGSLRLSCAASGRTFSSYAMAWFRQAPGKEREFVAAISWSGANIYVADSVKGRFTISRDNAKDTVYLQMNSLKPEDTAVYYCAVKLGFAPVEERQYDYWGQGTQVTVSS chain 2: QVQLVQSGAEVKKPGASVKVSCKTSGYTFTSNWMHWVRQAPGQGLEWMGEIDPSDSYTNYNQKFKGRVTITVDKSASTAYMELSSLRSEDTAVYYCARGSNPYYYAMDYWGQGTLVTVSSKLASTKGPSVFPLAPSSKSTSGGTAALGCLVKDYFPEPVTVSWNSGALTSGVHTFPAVLQSSGLYSLSSVVTVPSSSLGTQTYICNVNHKPSNTKVDKKVGSGGGGSGGGGSGGGGSQVQLVQSGGGLVQAGGSLRLSCAASGRTFSSYAMAWFRQAPGKEREFVAAISWSGANIYVADSVKGRFTISRDNAKDTVYLQMNSLKPEDTAVYYCAVKLGFAPVEERQYDYWGQGTQVTVSS | – | 0.000497 | 163000 | 3.06 | –
bispecific antibody Bp-Bs with dual Her2 binding sites (anti-CD3 UCHT1 Fab with anti-Her2 VHH1 on CL and anti-Her2 VHH2 on CH1) (bispecific antibody, VHHs are linked by (GGGGS)3; Expressed in E. coli and purified on Ni Sepharose; About 79 kDa) light: EIVLTQSPATLSLSPGERATLSCSASSGVNYMHWYQQKPGQAPRRWIYDTSKLASGVPARFSGSGSGTSYSLTISSLEPEDFAVYYCHQRGGSYTFGGGTKLEIKRKLTVAAPSVFIFPPSDEQLKSGTASVVCLLNNFYPREAKVQWKVDNALQSGNSQESVTEQDSKDSTYSLSSTLTLSKADYEKHKVYACEVTHQGLSSPVTKSFNRGECGSQVQLVQSGGGLVQAGGSLRLSCAASGRTFSSYAMAWFRQAPGKEREFVAAISWSGANIYVADSVKGRFTISRDNAKDTVYLQMNSLKPEDTAVYYCAVKLGFAPVEERQYDYWGQGTQVTVSS heavy: QVQLVQSGAEVKKPGASVKVSCKTSGYTFTSNWMHWVRQAPGQGLEWMGEIDPSDSYTNYNQKFKGRVTITVDKSASTAYMELSSLRSEDTAVYYCARGSNPYYYAMDYWGQGTLVTVSSASTKGPSVFPLAPSSKSTSGGTAALGCLVKDYFPEPVTVSWNSGALTSGVHTFPAVLQSSGLYSLSSVVTVPSSSLGTQTYICNVNHKPSNTKVDKKVEPKSCDKTHTCAAGGGGSGGGGSGGGGSQVQLQESGGGSVQAGGSLRLSCRASGFTFSSYAMSWVRQPPGKELEWVSAIWGGGDSQHYADSVKGRFTISRDNAKNTLYLQLNSLKTEDTGMYYCVKDRGPFFSGSKYVLGAADRGQGTQVTVSS | – | 2.33e-05 | 215000 | – | 0.109
anti-Her2-VHH1-Fc (Fc fusion, Called a single-site bivalent antibody; 1; also called single-site bivalent antibody anti-Her2 VHH1-Fc; not shown: Fc and any linker are not described) QVQLVQSGGGLVQAGGSLRLSCAASGRTFSSYAMAWFRQAPGKEREFVAAISWSGANIYVADSVKGRFTISRDNAKDTVYLQMNSLKPEDTAVYYCAVKLGFAPVEERQYDYWGQGTQVTVSS | 8.85 | 0.00263 | 298000 | – | –
